Test results taken from the supplement of paper PMC10567573.

B1: ALDH8A1 (parent)
chain: WSSRSPQERSRVLNQVADLLEQSL
B2: FAM164A (parent)
chain: YDPDYIQCPYCQRRFNENAADRHI

Variants of: B1
Test: protein stability index of a GFP-peptide fusion (GPS, HEK-293T) (PSI 1-6); higher = more stable
Conditions: c terminus: a fixed tail appended
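Further: lentivirally expressed fusions sorted by FACS into six bins by GFP to DsRed ratio, PSI derived from sequencing read proportions per bin multiplied by bin number.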

Point of comparison: WSSRSPQERSRVLNQVADLLEQSK, protein stability index 3.94. Against it:
- WSSRSPQERSRVLNQVADLLEMSL — lower, 1.83
- WSSRSPQERSRVLNQVADLLEYSL — lower, 2.33
- WSSRSPQERSRVLNQVADLLEPSL — lower, 3.31
- WSSRSPQERSRVLNQVADLLETSL — lower, 2.53
- WSSRSPQERSRVLNQVADLLENSL — lower, 2.61
- WSSRSPQERSRVLNQVADLLECSL — lower, 1.68
- WSSRSPQERSRVLNQVADLLEVSL — lower, 1.91
- WSSRSPQERSRVLNQVADLLEFSL — lower, 1.93
- WSSRSPQERSRVLNQVADLLEKSL — lower, 2.27
- WSSRSPQERSRVLNQVADLLEGSL — lower, 2.98
- WSSRSPQERSRVLNQVADLLEESL — lower, 2.88
- WSSRSPQERSRVLNQVADLLERSL — lower, 2.72
- WSSRSPQERSRVLNQVADLLEASL — lower, 2.22
- WSSRSPQERSRVLNQVADLLELSL — lower, 1.65
- WSSRSPQERSRVLNQVADLLESSL — lower, 3.1
- WSSRSPQERSRVLNQVADLLEDSL — lower, 3.63
- WSSRSPQERSRVLNQVADLLEWSL — lower, 1.95
- WSSRSPQERSRVLNQVADLLEHSL — lower, 3.34
- WSSRSPQERSRVLNQVADLLEISL — lower, 2.01
- WSSRSPQERSRVLNQVADCLEQSL — lower, 3.14
- WSSRSPQERSRVLNQVADWLEQSL — lower, 2.24
- WSSRSPQERSRVLNQVADGLEQSL — higher, 4.16
- WSSRSPQERSRVLNQVADSLEQSL — higher, 4.14
- WSSRSPQERSRVLNQVADELEQSL — higher, 4.4
- WSSRSPQERSRVLNQVADMLEQSL — lower, 2.52
- WSSRSPQERSRVLNQVADTLEQSL — lower, 3.74
- WSSRSPQERSRVLNQVADDLEQSL — lower, 3.72
- WSSRSPQERSRVLNQVADHLEQSL — higher, 3.97
- WSSRSPQERSRVLNQVADRLEQSL — higher, 3.98
- WSSRSPQERSRVLNQVADQLEQSL — higher, 4.19
- WSSRSPQERSRVLNQVADYLEQSL — lower, 3.15
- WSSRSPQERSRVLNQVADPLEQSL — higher, 4.63
- WSSRSPQERSRVLNQVADKLEQSL — lower, 3.79
- WSSRSPQERSRVLNQVADFLEQSL — lower, 2.23
- WSSRSPQERSRVLNQVADALEQSL — lower, 3.18
- WSSRSPQERSRVLNQVADILEQSL — lower, 2.31
- WSSRSPQERSRVLNQVADVLEQSL — lower, 3.07
- WSSRSPQERSRVLNQVADNLEQSL — higher, 4.23
- WSSRSPQERSRVLNQVADLLEQSH — higher, 3.96
- WSSRSPQERSRVLNQVADLLEQSW — lower, 2.19
- WSSRSPQERSRVLNQVADLLEQSY — lower, 1.86
- WSSRSPQERSRVLNQVADLLEQSQ — lower, 3.4
- WSSRSPQERSRVLNQVADLLEQSV — lower, 2.29
- WSSRSPQERSRVLNQVADLLEQSI — lower, 1.76
- WSSRSPQERSRVLNQVADLLEQSC — lower, 2.9
- WSSRSPQERSRVLNQVADLLEQST — lower, 3.34
- WSSRSPQERSRVLNQVADLLEQSG — lower, 3.16
- WSSRSPQERSRVLNQVADLLEQSN — lower, 2.96
- WSSRSPQERSRVLNQVADLLEQSE — lower, 3.59
- WSSRSPQERSRVLNQVADLLEQSD — higher, 4.17
- WSSRSPQERSRVLNQVADLLEQSR — lower, 3.49
- WSSRSPQERSRVLNQVADLLEQSM — lower, 2.86
- WSSRSPQERSRVLNQVADLLEQSA — lower, 2.88
- WSSRSPQERSRVLNQVADLLEQSP — higher, 4.16
- WSSRSPQERSRVLNQVADLLEQSF — lower, 2.03
- WSSRSPQERSRVLNQVADLLEQSS — lower, 3.61
- WSSRSPQERSRVLNQVADLLKQSL — lower, 1.61
- WSSRSPQERSRVLNQVADLLLQSL — lower, 2.11
- WSSRSPQERSRVLNQVADLLYQSL — lower, 1.71
- WSSRSPQERSRVLNQVADLLQQSL — lower, 2.38
- WSSRSPQERSRVLNQVADLLFQSL — lower, 2.47
- WSSRSPQERSRVLNQVADLLNQSL — lower, 2.52
- WSSRSPQERSRVLNQVADLLMQSL — lower, 2
- WSSRSPQERSRVLNQVADLLVQSL — lower, 2.17
- WSSRSPQERSRVLNQVADLLAQSL — lower, 2.13
- WSSRSPQERSRVLNQVADLLSQSL — lower, 2.27
- WSSRSPQERSRVLNQVADLLPQSL — lower, 3.24
- WSSRSPQERSRVLNQVADLLRQSL — lower, 2.26
- WSSRSPQERSRVLNQVADLLCQSL — lower, 2.47
- WSSRSPQERSRVLNQVADLLGQSL — lower, 2.24
- WSSRSPQERSRVLNQVADLLWQSL — lower, 1.58
- WSSRSPQERSRVLNQVADLLIQSL — lower, 2.09
- WSSRSPQERSRVLNQVADLLDQSL — lower, 2.58
- WSSRSPQERSRVLNQVADLLTQSL — lower, 2.33
- WSSRSPQERSRVLNQVADLAEQSL — lower, 3.59
- WSSRSPQERSRVLNQVADLGEQSL — lower, 3.64
- WSSRSPQERSRVLNQVADLQEQSL — lower, 3.68
- WSSRSPQERSRVLNQVADLTEQSL — higher, 4.08
- WSSRSPQERSRVLNQVADLFEQSL — lower, 2.75
- WSSRSPQERSRVLNQVADLYEQSL — lower, 3.37
- WSSRSPQERSRVLNQVADLIEQSL — lower, 2.28
- WSSRSPQERSRVLNQVADLKEQSL — higher, 4.64
- WSSRSPQERSRVLNQVADLCEQSL — lower, 3.45
- WSSRSPQERSRVLNQVADLREQSL — lower, 3.5
- WSSRSPQERSRVLNQVADLVEQSL — lower, 3.03
- WSSRSPQERSRVLNQVADLMEQSL — lower, 3.44
- WSSRSPQERSRVLNQVADLWEQSL — lower, 2.82
- WSSRSPQERSRVLNQVADLPEQSL — higher, 4.33
- WSSRSPQERSRVLNQVADLHEQSL — lower, 3.86
- WSSRSPQERSRVLNQVADLEEQSL — higher, 4.43
- WSSRSPQERSRVLNQVADLSEQSL — higher, 3.96
- WSSRSPQERSRVLNQVADLDEQSL — higher, 4.64
- WSSRSPQERSRVLNQVADLNEQSL — higher, 4.14
- WSSRSPQERSRVLNQVADLLEQTL — lower, 1.94
- WSSRSPQERSRVLNQVADLLEQVL — lower, 2.09
- WSSRSPQERSRVLNQVADLLEQPL — lower, 3.15
- WSSRSPQERSRVLNQVADLLEQYL — lower, 1.72
- WSSRSPQERSRVLNQVADLLEQHL — lower, 2.77
- WSSRSPQERSRVLNQVADLLEQRL — lower, 3.64
- WSSRSPQERSRVLNQVADLLEQKL — lower, 3.53
- WSSRSPQERSRVLNQVADLLEQLL — lower, 2.11
- WSSRSPQERSRVLNQVADLLEQQL — lower, 3.39
- WSSRSPQERSRVLNQVADLLEQFL — lower, 2.24
- WSSRSPQERSRVLNQVADLLEQEL — lower, 3.39
- WSSRSPQERSRVLNQVADLLEQAL — lower, 2.31
- WSSRSPQERSRVLNQVADLLEQCL — lower, 1.96
- WSSRSPQERSRVLNQVADLLEQIL — lower, 2.51
- WSSRSPQERSRVLNQVADLLEQDL — higher, 4.17
- WSSRSPQERSRVLNQVADLLEQGL — lower, 2.54
- WSSRSPQERSRVLNQVADLLEQML — lower, 2.3
- WSSRSPQERSRVLNQVADLLEQNL — lower, 3.45
- WSSRSPQERSRVLNQVADLLEQWL — lower, 1.94

Variants of: B2
Test: as above
Conditions: c terminus: a fixed tail appended

Point of comparison: YDPDYIPCPYCQRRFNENAADRHI, protein stability index 2.88. Against it:
- YDPDYIQCPYCQRRFNEDAADRHI — higher, 4.5
- YDPDYIQCPYCQRRFNEVAADRHI — higher, 3.86
- YDPDYIQCPYCQRRFNEYAADRHI — higher, 3.72
- YDPDYIQCPYCQRRFNERAADRHI — higher, 3.71
- YDPDYIQCPYCQRRFNENAFDRHI — higher, 3.87
- YDPDYIQCPYCQRRFNENAMDRHI — higher, 4.12
- YDPDYIQCPYCQRRFNENADDRHI — higher, 4.25
- YDPDQIQCPYCQRRFNENAADRHI — higher, 4.12
- YDPDIIQCPYCQRRFNENAADRHI — higher, 4.41
- YDPDTIQCPYCQRRFNENAADRHI — higher, 4.14
- YDPDYIQCPYCQRRFNENAADRTI — higher, 3.65
- YDPDYIQCPYCQRRFNENAADRWI — higher, 3.63
- YDPDYIQCPYCQRRFNENAALRHI — higher, 4.55
- YDPDYIQCPYCQRRFNENAAKRHI — higher, 4.46
- YDPDYIQCPYCQRRFNENAANRHI — higher, 4.72
- YDPDYIQCPYCQRRFNENAAARHI — higher, 4.33
- YDPDYIQCPYCQRRQNENAADRHI — higher, 3.4
- YDPDYIQCPYCQRRMNENAADRHI — higher, 3.66
- YDPDYIQCPYCQRRWNENAADRHI — higher, 4
- YDPDYIQCPYCQRRSNENAADRHI — higher, 2.93
- YDPDYIQCPYCQRRVNENAADRHI — higher, 3.06
- YDPDYIQCPYCQRRPNENAADRHI — lower, 2.8
- YDPDYIQCPYCQRRFNENAADRHN — higher, 4.47
- YDPDYIQCPYCQRRFNENAADRHH — higher, 4.4
- YDPDYIQCPYCQRRFNENAADRHP — higher, 4.25
- YDPDYIQCPYCQRRFNENAADRHV — higher, 4.6
- YDPDYIQCPYCQRRFNENAADRHW — higher, 2.89
- YDPDYIQGPYCQRRFNENAADRHI — higher, 3.81
- YDPDYIQSPYCQRRFNENAADRHI — higher, 3.68
- YDPDYIQLPYCQRRFNENAADRHI — higher, 3.56
- YDPDYAQCPYCQRRFNENAADRHI — higher, 3.58
- YDPDYVQCPYCQRRFNENAADRHI — higher, 4.14
- YDPDYIQCPYCQNRFNENAADRHI — higher, 3.68
- YDPDYIQCPYCQDRFNENAADRHI — higher, 3.16
- YDPDYIQCPYCQKRFNENAADRHI — higher, 4.32
- YDPDYIQCPYCQMRFNENAADRHI — higher, 4.03
- YDPDYIKCPYCQRRFNENAADRHI — higher, 3.94
- YDPDYIQCPYRQRRFNENAADRHI — higher, 3.06
- YDPDYIQCPYVQRRFNENAADRHI — higher, 3.57
- YDPDYIQCPYNQRRFNENAADRHI — higher, 4.36
- YDPDYIQCPYFQRRFNENAADRHI — higher, 3.45
- GDPDYIQCPYCQRRFNENAADRHI — higher, 4.17
- RDPDYIQCPYCQRRFNENAADRHI — higher, 3.98
- DDPDYIQCPYCQRRFNENAADRHI — higher, 4.86
- FDPDYIQCPYCQRRFNENAADRHI — higher, 3.42
- TDPDYIQCPYCQRRFNENAADRHI — higher, 4.79
- YDPDYIQCPTCQRRFNENAADRHI — higher, 3.56
- YDPDYIQCPPCQRRFNENAADRHI — higher, 3.72
- YDPDYIQCPYCTRRFNENAADRHI — lower, 2.4
- YDPDYIQCPYCCRRFNENAADRHI — higher, 3.84
- YDPDYIQCPYCYRRFNENAADRHI — higher, 4.3
- YDPDYIQCPYCQRQFNENAADRHI — higher, 4.24
- YDPDYIQCPYCQRCFNENAADRHI — higher, 4.41
- YDPDYIQCPYCQRKFNENAADRHI — higher, 4.01
- YDPDYIQCPYCQRDFNENAADRHI — higher, 3.08
- YDPDYIQCPYCQRRFNENAADCHI — higher, 4.43
- YDPDYIQCPYCQRRFNENAADFHI — higher, 3.26
- YDPDYIQCPYCQRRFNYNAADRHI — higher, 4.68
- YHPDYIQCPYCQRRFNENAADRHI — lower, 2.78
- YTPDYIQCPYCQRRFNENAADRHI — lower, 2.33
- YDPDYIQCKYCQRRFNENAADRHI — lower, 2.58
- YDPDYIQCVYCQRRFNENAADRHI — lower, 2.44
- YDPDYIQCAYCQRRFNENAADRHI — lower, 2.38
- YDPDYIQCGYCQRRFNENAADRHI — lower, 2.54
- YDPLYIQCPYCQRRFNENAADRHI — higher, 3.59
- YDPDYIQCPYCQRRFNENNADRHI — higher, 4.37
- YDPDYIQCPYCQRRFNENTADRHI — higher, 4.51
- YDPDYIQCPYCQRRFNENPADRHI — higher, 4.03
- YDPDYIQCPYCQRRFQENAADRHI — higher, 4.56
- YDPDYIQCPYCQRRFTENAADRHI — higher, 4.48
- YDPDYIQCPYCQRRFLENAADRHI — higher, 4.45
- YDADYIQCPYCQRRFNENAADRHI — higher, 4.57
- YDFDYIQCPYCQRRFNENAADRHI — higher, 4.02
- YDEDYIQCPYCQRRFNENAADRHI — higher, 4.63
